Data as given in the supplement of paper PMC9112550, “Optimization of the antimicrobial peptide Bac7 by deep mutational scanning” (BMC Biology, 2022).

system: Escherichia coli TOP10; experiment: shrunken log2 fold change of peptide-encoding DNA abundance (4.5 h post-induction vs induction); higher = less antimicrobial activity (less host growth inhibition); details: time post-induction: 4.5 h; library: site-saturation at positions 5, 18, 19, 20
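Note: peptides expressed intracellularly from a pBAD plasmid library in pooled LB shake-flask culture, induced with 0.3% L-arabinose, DNA abundance read by NGS, three biological replicates, DESeq2 with apeglm shrinkage.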

Sequence | shrunken log2 fold change
RRIRMRPPRLPRPRPRPSAGPRP | 0.655
RRIRSRPPRLPRPRPRPDYIPRP | -0.443
RRIRTRPPRLPRPRPRPEVIPRP | -0.0149
RRIRTRPPRLPRPRPRPEEVPRP | -0.0075
RRIRRRPPRLPRPRPRPYGAPRP | -0.171
RRIRRRPPRLPRPRPRPHFQPRP | -0.0173
RRIRHRPPRLPRPRPRPHDPPRP | -0.613
RRIRHRPPRLPRPRPRPFQSPRP | -0.00192
RRIRGRPPRLPRPRPRPMGYPRP | 0.111
RRIRARPPRLPRPRPRPYNAPRP | -1.2
RRIRKRPPRLPRPRPRPGKTPRP | -0.0179
RRIRYRPPRLPRPRPRPLGEPRP | -0.172
RRIRLRPPRLPRPRPRPPLCPRP | 0.162
RRIRHRPPRLPRPRPRPSHVPRP | -0.166
RRIRGRPPRLPRPRPRPHWHPRP | 0.0418
RRIRFRPPRLPRPRPRPWMPPRP | -0.25
RRIRFRPPRLPRPRPRPAWGPRP | 0.144
RRIRYRPPRLPRPRPRPMLKPRP | -0.374
RRIRIRPPRLPRPRPRPPIGPRP | -0.0282
RRIRNRPPRLPRPRPRPVFTPRP | -0.349
RRIRVRPPRLPRPRPRPVTCPRP | -0.155
RRIRCRPPRLPRPRPRPKQRPRP | 0.222
RRIRSRPPRLPRPRPRPTWLPRP | 0.455
RRIRIRPPRLPRPRPRPVHPPRP | -0.0793
RRIRYRPPRLPRPRPRPSTWPRP | -0.647

Sequence | shrunken log2 fold change
RRIRLRPPRLPRPRPRPYTMPRP | -0.923
RRIRGRPPRLPRPRPRPFCHPRP | 0.418
RRIRQRPPRLPRPRPRPTRWPRP | 0.561
RRIRDRPPRLPRPRPRPPGKPRP | 0.176
RRIRARPPRLPRPRPRPDMSPRP | 0.0274
RRIRMRPPRLPRPRPRPLENPRP | 0.0866
RRIRARPPRLPRPRPRPGTIPRP | -0.0682
RRIRWRPPRLPRPRPRPQCAPRP | 0.572
RRIRNRPPRLPRPRPRPDMEPRP | -0.0836
RRIRIRPPRLPRPRPRPSQGPRP | -0.0729
RRIRMRPPRLPRPRPRPQRKPRP | 0.605
RRIRARPPRLPRPRPRPMMKPRP | -0.146
RRIRDRPPRLPRPRPRPVNYPRP | -0.116
RRIRNRPPRLPRPRPRPDKPPRP | -0.14
RRIRVRPPRLPRPRPRPFIFPRP | -0.177
RRIRNRPPRLPRPRPRPYCGPRP | -0.352
RRIRLRPPRLPRPRPRPVNTPRP | -0.186
RRIRCRPPRLPRPRPRPLPTPRP | 0.63
RRIRPRPPRLPRPRPRPRGWPRP | 1.12
RRIRPRPPRLPRPRPRPQYPPRP | -0.133
RRIRLRPPRLPRPRPRPWIFPRP | -0.0453
RRIRVRPPRLPRPRPRPMHTPRP | 0.0814
RRIRWRPPRLPRPRPRPGTLPRP | -0.0473
RRIRLRPPRLPRPRPRPWTIPRP | -0.0385
RRIRLRPPRLPRPRPRPDFRPRP | 0.0254

Sequence | shrunken log2 fold change
RRIRWRPPRLPRPRPRPVMGPRP | 0.37
RRIRERPPRLPRPRPRPWDAPRP | -0.379
RRIRRRPPRLPRPRPRPVTNPRP | 0.266
RRIRNRPPRLPRPRPRPFPHPRP | -0.0462
RRIRTRPPRLPRPRPRPSNIPRP | -0.329
RRIRVRPPRLPRPRPRPRDAPRP | 0.422
RRIRVRPPRLPRPRPRPKRHPRP | 0.0244
RRIRPRPPRLPRPRPRPFDGPRP | -0.214
RRIRSRPPRLPRPRPRPHPQPRP | 0.0419
RRIRNRPPRLPRPRPRPTHNPRP | -0.114
RRIRDRPPRLPRPRPRPHQLPRP | -0.0991
RRIRRRPPRLPRPRPRPFSWPRP | -0.469
RRIRWRPPRLPRPRPRPNWAPRP | -0.0835
RRIRYRPPRLPRPRPRPWCKPRP | -0.00141
RRIRVRPPRLPRPRPRPYWCPRP | -0.409
RRIRGRPPRLPRPRPRPLAEPRP | 2.89
RRIRDRPPRLPRPRPRPQGYPRP | -0.0816
RRIRRRPPRLPRPRPRPDSMPRP | -0.251
RRIRFRPPRLPRPRPRPSNLPRP | -0.56
RRIRARPPRLPRPRPRPWTIPRP | -0.0653
RRIRPRPPRLPRPRPRPGRDPRP | 0.286
RRIRQRPPRLPRPRPRPPDMPRP | -0.14
RRIRARPPRLPRPRPRPHELPRP | 0.0601
RRIRERPPRLPRPRPRPCVYPRP | -0.33
RRIRFRPPRLPRPRPRPACAPRP | 0.291
